In this assay the target is SARS-CoV-2 NTD-RBD-foldon (SARS-CoV-2 (strain Wuhan-1/2020) | bacteriophage T4) (UniProt P0DTC2). Put plainly: SEC-MALS.

On to “SARS-CoV-2 NTD-RBD-foldon (from UniProt P0DTC2 14-541)”, for which the stoichiometry N was 3.
